Experimental data as given in patent publication US12331106B2, “Anti-angiopoietin-2 antibodies that induce Tie2 activation” (Institute for Basic Science, priority 2018, dated 2025).

T1: hAng2 (Homo sapiens, UniProt O15123)
T1 sequence (O15123 19-496): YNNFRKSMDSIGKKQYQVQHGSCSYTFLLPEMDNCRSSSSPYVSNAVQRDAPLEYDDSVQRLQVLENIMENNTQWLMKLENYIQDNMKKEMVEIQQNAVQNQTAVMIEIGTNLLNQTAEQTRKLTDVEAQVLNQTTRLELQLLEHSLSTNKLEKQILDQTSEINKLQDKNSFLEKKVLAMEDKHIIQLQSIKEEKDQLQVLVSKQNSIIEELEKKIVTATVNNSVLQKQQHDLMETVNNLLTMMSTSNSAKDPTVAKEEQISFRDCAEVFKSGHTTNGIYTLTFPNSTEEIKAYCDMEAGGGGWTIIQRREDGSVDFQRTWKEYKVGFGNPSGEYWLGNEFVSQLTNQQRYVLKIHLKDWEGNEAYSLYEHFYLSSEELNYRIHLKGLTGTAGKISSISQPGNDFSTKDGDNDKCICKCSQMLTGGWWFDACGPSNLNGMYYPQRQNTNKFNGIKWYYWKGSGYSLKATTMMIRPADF


Key:
[1] = tested on: downstream signaling of the Tie2 receptor (Akt phosphorylation) in HUVECs; assay: Akt phosphorylation in HUVECs by mouse anti-Ang2 antibodies plus hAng2 (immunoblot); format: cell-based, human; conditions: serum-starved HUVECs; antibody combined with hAng2 1 μg/ml; 30 min
Description: To investigate whether the mouse anti-Ang2 antibodies induce the downstream signaling of the Tie2 receptor in endothelial cells, HUVECs (LONZA™) were treated with a combination of hAng2 protein and anti-Ang2 antibody, and then the level of Akt phosphorylation, the main downstream signaling protein of Tie2 receptor, was analyzed by immunoblotting. As a negative control group, the full-length hAng2 (R&D® Systems) alone was treated into the cells.
Specifically, HUVECs (1×10^5 cells/ml) were cultured in EGM-2 medium (LONZA™) at 37° C. in a 60 mm culture dish. Cells (90% confluency) were incubated with serum-free EBM-2 medium for 4 hrs for serum starvation. The serum-starved HUVECs were treated with a mixture of anti-Ang2 antibody and hAng2 protein (1 μg/ml, R&D® Systems) and further incubated for 30 min. The cells were washed with cold PBS, treated with lysis buffer, and lysed at 4° C. for 20 min. Then, the cell lysates were prepared by centrifugation at 13000 rpm for 15 min. 5× SDS sample buffer was added to the cell lysate and the cell lysate was boiled at 95° C. for 5 min. Then, the cell lysate was subjected to SDS PAGE and proteins were transferred to a nitrocellulose membrane (GE).
To investigate Akt phosphorylation, the blot was blocked with 5% skim milk-containing TBS-T for 1 hr at room temperature (RT), and incubated with anti-phospho-Akt antibody (S473) at 4° C. for about 8 hrs. The amount of phospho-Akt was visualized by an enhanced chemiluminescence (ECL). Then, the membrane was incubated in a stripping buffer (Thermo) for 15 min, and then reprobed with an anti-Akt antibody to determine the amount of total Akt.

[2] = molecular target: T1, hAng2; assay: OCTET affinity of mouse monoclonal anti-Ang2 antibodies against hAng2; conditions: hAng2 fixed on AR2G biosensor, 1:1 binding model
Description: The affinity of mouse monoclonal antibody against hAng2 was measured using OCTET® system (ForteBio, real-time, label-free bio-layer interferometry system for determination of affinity, kinetics, and concentration). Specifically, buffer and samples were measured in total 200 μl/well using Black 96-well plates (96 well F-type black plates, Greiner). The biosensor used for affinity measurements was hydrated for 10 min before measurement with AR2G tip (ForteBio OCTET®). After the hydration, hAng2 was diluted in 10 mM sodium acetate, pH 6.0 buffer at a concentration of 10 μg/ml, fixed on AR2G biosensor, and blocked with 1M ethanolamine. The mouse monoclonal anti-Ang2 antibodies were diluted to 50, 25, 12.5, 6.25, 3.125, and 0 nM with 1× kinetic buffer, and subjected to association for 300 seconds and dissociation for 900 seconds. For affinity measurement (KD), the association rate (K-on) and dissociation rate (K-off) were analyzed by binding curve (global) and fitted to 1:1 binding model using OCTET® data analysis v9.0.0.10 program.

Molecule | Akt phosphorylation at S473 [1] | Koff [2] [s⁻¹] | Kon [2] [M⁻¹ s⁻¹]
2F10: mouse monoclonal anti-Ang2 antibody; VH SEQ ID NO: 29, VL SEQ ID NO: 31 (antibody, V domains shown, Heavy Chain Variable Region; Light Chain Variable Region) VH: QVQLVESGGGLVKPGGSLKLSCAASGFTFSDYYMYWIRQTPEKRLEWVATINDGGSYTYYPDSVKGRFTISRDNAKNNLYLQMSSLKSEDTAMYYCARDWGLRPWFVYWGQGTLVTVSA VL: DIVMTQSHKFMSTSVGDRVSITCKASQDVSTAVAWYQQKPGQSPKLLIYWASTRHTGVPDRFTGSGSGTDYTLTISSVQAEDLALYYCQQHYTTPPTFGSGTKLEIK | strongly induced | 1.71e-05 | 124000
4E2: mouse monoclonal anti-Ang2 antibody; VH SEQ ID NO: 39, VL SEQ ID NO: 41 (antibody, V domains shown, Heavy Chain Variable Region; Light Chain Variable Region) VH: EVQLQQSGPELEKPGASVKISCKASGYSFTGYNMNWVKQSNGKSLEWIGNIDPYYGGTSYNQKFKGKATLTVDKSSSTAYMQLKSLTSEDSAVYYCVRYGNYVDYWGQGTTLTVSS VL: DIVMTQSHKFMSTSVGDRVSITCKASQDVSTAVAWYQQKPGQSPKLLIYWASTRHTGVPDRFTGSGSGTDYTLTISSVQAEDLALYYCQQHYNTPPTFGSGTKLEIK | strongly induced | 0.000134 | 28300
